Our source for the Kd values is paper PMC8390535.

In the assay the target is sfGFP-POX10 (superfolder green fluorescent protein POX10 fusion protein). The experiment in a line: SPR.

As usually defined, the Kd is a measure of binding affinity in units of concentration. A lower Kd goes with higher affinity. In turn, “PXDN-con4 (human recombinant peroxidasin consisting of the four immunoglobulin domains and the peroxidase domain) (domain or fragment)” had a Kd of 74 nM.
